Molecular target: the molecule itself
Assay: SEC-MALLS

| Protein | stoichiometry N |
| --- | --- |
| full-length human SNED1 (Sushi, nidogen and EGF-like domain-containing protein 1), FLAG-tagged (natural protein, UniProt Q8TER0 25-1413, looked up, N-glycosylated; phosphorylated on serine and threonine residues (sites not mapped)) AVALADFYPFGAERGDAVTPKQDDGGSGLRPLSVPFPFFGAEHSGLYVNNNGIISFLKEVSQFTPVAFPIAKDRCVVAAFWADVDNRRAGDVYYREATDPAMLRRATEDVRHYFPELLDFNATWVFVATWYRVTFFGGSSSSPVNTFQTVLITDGKLSFTIFNYESIVWTTGTHASSGGNATGLGGIAAQAGFNAGDGQRYFSIPGSRTADMAEVETTTNVGVPGRWAFRIDDAQVRVGGCGHTTSVCLALRPCLNGGKCIDDCVTGNPSYTCSCLSGFTGRRCHLDVNECASQPCQNGGTCTHGINSFRCQCPAGFGGPTCETAQSPCDTKECQHGGQCQVENGSAVCVCQAGYTGAACEMDVDDCSPDPCLNGGSCVDLVGNYTCLCAEPFKGLRCETGDHPVPDACLSAPCHNGGTCVDADQGYVCECPEGFMGLDCRERVPDDCECRNGGRCLGANTTLCQCPLGFFGLLCEFEITAMPCNMNTQCPDGGYCMEHGGSYLCVCHTDHNASHSLPSPCDSDPCFNGGSCDAHDDSYTCECPRGFHGKHCEKARPHLCSSGPCRNGGTCKEAGGEYHCSCPYRFTGRHCEIGKPDSCASGPCHNGGTCFHYIGKYKCDCPPGFSGRHCEIAPSPCFRSPCVNGGTCEDRDTDFFCHCQAGYMGRRCQAEVDCGPPEEVKHATLRFNGTRLGAVALYACDRGYSLSAPSRIRVCQPHGVWSEPPQCLEIDECRSQPCLHGGSCQDRVAGYLCLCSTGYEGAHCELERDECRAHPCRNGGSCRNLPGAYVCRCPAGFVGVHCETEVDACDSSPCQHGGRCESGGGAYLCVCPESFFGYHCETVSDPCFSSPCGGRGYCLASNGSHSCTCKVGYTGEDCAKELFPPTALKMERVEESGVSISWNPPNGPAARQMLDGYAVTYVSSDGSYRRTDFVDRTRSSHQLQALAAGRAYNISVFSVKRNSNNKNDISRPAVLLARTRPRPVEGFEVTNVTASTISVQWALHRIRHATVSGVRVSIRHPEALRDQATDVDRSVDRFTFRALLPGKRYTIQLTTLSGLRGEEHPTESLATAPTHVWTRPLPPANLTAARVTATSAHVVWDAPTPGSLLEAYVINVTTSQSTKSRYVPNGKLASYTVRDLLPGRRYQLSVIAVQSTELGPQHSEPAHLYIITSPRDGADRRWHQGGHHPRVLKNRPPPARLPELRLLNDHSAPETPTQPPRFSELVDGRGRVSARFGGSPSKAATVRSQPTASAQLENMEEAPKRVSLALQLPEHGSKDIGNVPGNCSENPCQNGGTCVPGADAHSCDCGPGFKGRRCELACIKVSRPCTRLFSETKAFPVWEGGVCHHVYKRVYRVHQDICFKESCESTSLKKTPNRKQSKSQTLEKS | 2 |
| N-terminal fragment of human SNED1 (amino acids 1 to 260, includes the NIDO domain), FLAG-tagged (domain or fragment, UniProt Q8TER0 25-260, looked up, N-glycosylated; phosphorylated on serine and threonine residues (sites not mapped)) AVALADFYPFGAERGDAVTPKQDDGGSGLRPLSVPFPFFGAEHSGLYVNNNGIISFLKEVSQFTPVAFPIAKDRCVVAAFWADVDNRRAGDVYYREATDPAMLRRATEDVRHYFPELLDFNATWVFVATWYRVTFFGGSSSSPVNTFQTVLITDGKLSFTIFNYESIVWTTGTHASSGGNATGLGGIAAQAGFNAGDGQRYFSIPGSRTADMAEVETTTNVGVPGRWAFRIDDAQV | 2 |

— doi:10.1101/2020.07.27.223107 (bioRxiv, 2020)
